Experimental data reported in publication PMC6771166.

B1: CD73 (ecto‐5′‐nucleotidase): N311Q (protein)
parent chain: MCPRAARAPATLLLALGAVLWPAAGAWELTILHTNDVHSRLEQTSEDSSKCVNASRCMGGVARLFTKVQQIRRAEPNVLLLDAGDQYQGTIWFTVYKGAEVAHFMNALRYDAMALGNHEFDNGVEGLIEPLLKEAKFPILSANIKAKGPLASQISGLYLPYKVLPVGDEVVGIVGYTSKETPFLSNPGTNLVFEDEITALQPEVDKLKTLNVNKIIALGHSGFEMDKLIAQKVRGVDVVVGGHSNTFLYTGNPPSKEVPAGKYPFIVTSDDGRKVPVVQAYAFGKYLGYLKIEFDERGNVISSHGNPILLNSSIPEDPSIKADINKWRIKLDNYSTQELGKTIVYLDGSSQSCRFRECNMGNLICDAMINNNLRHTDEMFWNHVSMCILNGGGIRSPIDERNNGTITWENLAAVLPFGGTFDLVQLKGSTLKKAFEHSVHRYGQSTGEFLQVGGIHVVYDLSRKPGDRVVKLDVLCTKCRVPSYDPLKMDEVYKVILPNFLANGGDGFQMIKDELLRHDSGDQDINVVSTYISKMKVIYPAVEGRIKFSTGSHCHGSFSLIFLSLWAVIFVLYQ
B2: CD73 (ecto‐5′‐nucleotidase): N333Q (protein)
parent chain: B1 parent chain

Test: 5′-nucleotidase kit, transfected PLC/PRF/5 lysates
Conditions: glycan lost; control: wild type

Protein	enzymatic_activity, percent_of_wt
B1	decreases
B2	decreases
